Target: T1, aggregated Aβ in plaques of the cerebral cortex of a patient with Alzheimer's disease (human (brain of a patient with …, UniProt P05067 672-713))
T1 construct: Tissue section fixed in 4% formaldehyde, embedded in paraffin, pre-treated with formic acid; also called neurotic plaques
Assay: immunolabeling of sections of Alzheimer's disease cerebral cortex
From the text: A section of the cerebral cortex of the brain of a patient with Alzheimer's disease was fixed in 4% formaldehyde and embedded in paraffin, then pre-treated with formic acid. […] Arrows indicate vessels in the serial sections.

T1 sequence (P05067 672-713): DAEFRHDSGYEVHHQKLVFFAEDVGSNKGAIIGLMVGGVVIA

B1: antibody 4396C (antibody, V domains shown)
VH: EVQLQQSGPELVKTGASVKISCKASGYSFTGYYMHWVKQSHGKSLEWIGYISCYNGATSYNQKFKGKATFTVDTSSSTAYMQFNSLTSEDSAVYYCARGANWVFDYWGQGTTLTVSS
VL: QAVVTQESALTTSPGGTVILTCRSSTGAVTTSNYANWVQEKPDHLFTGLIGGTSNRAPGVPVRFSGSLIGDKAALTITGAQTEDDAMYFCALWYSTHYVFGGGTKVTVLG
  binding result: no binding

Reference: patent publication US20040181042A1 (MEDICAL AND BIOLOGICAL LABORATORIES, published 2004)
